B1: PCGF1 35–255 (RING finger and RAWUL domains) (domain or fragment, UniProt Q9BSM1 35-255, looked up)
chain: RVKIKDLNEHIVCCLCAGYFVDATTITECLHTFCKSCIVKYLQTSKYCPMCNIKIHETQPLLNLKLDRVMQDIVYKLVPGLQDSEEKRIREFYQSRGLDRVTQPTGEEPALSNLGLPFSSFDHSKAHYYRYDEQLNLCLERLSSGKDKNKSVLQNKYVRCSVRAEVRHLRRVLCHRLMLNPQHVQLLFDNEVLPDHMTMKQIWLSRWFGKPSPLLLQYSVK
B2: BCORL1 PUFD (1594–1711) (domain or fragment)
chain: METRDDFMFELSDKPLLPCYNLQVSVSRGPCNWFLFSDVLKRLKLSSRIFQARFPHFEITTMPKAEFYRQVASSQLLTPAERPGGLDDRSPPGSSETVELVRYEPDLLRLLGSEVEFQSCNS
B3: PCGF1 150–255/BCORL1 PUFD dimer (complex)
chain 1: LPFSSFDHSKAHYYRYDEQLNLCLERLSSGKDKNKSVLQNKYVRCSVRAEVRHLRRVLCHRLMLNPQHVQLLFDNEVLPDHMTMKQIWLSRWFGKPSPLLLQYSVK
chain 2: METRDDFMFELSDKPLLPCYNLQVSVSRGPCNWFLFSDVLKRLKLSSRIFQARFPHFEITTMPKAEFYRQVASSQLLTPAERPGGLDDRSPPGSSETVELVRYEPDLLRLLGSEVEFQSCNS

Tests used:
RING1B, full-length = molecular target: T1, RING1B, full-length (UniProt Q99496 1-336); assay: AUC
T1 sequence (looked up): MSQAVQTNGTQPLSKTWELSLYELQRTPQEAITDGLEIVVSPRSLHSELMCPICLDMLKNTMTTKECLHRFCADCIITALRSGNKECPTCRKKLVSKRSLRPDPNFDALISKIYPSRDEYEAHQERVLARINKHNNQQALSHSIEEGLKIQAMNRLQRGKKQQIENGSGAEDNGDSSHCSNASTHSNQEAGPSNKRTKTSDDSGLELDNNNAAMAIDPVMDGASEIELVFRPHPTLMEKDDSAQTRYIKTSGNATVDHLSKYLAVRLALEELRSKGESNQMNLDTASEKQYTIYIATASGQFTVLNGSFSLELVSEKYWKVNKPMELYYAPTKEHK

[1] = molecular target: B1; assay: AUC
[2] = molecular target: KDM2B 1059–1336/SKP1 heterodimer (UniProt Q8NHM5 1059-1336; P63208 2-163); assay: ITC
Sequence of KDM2B 1059–1336/SKP1 heterodimer (Q8NHM5 1059-1336, chain 1 of 2): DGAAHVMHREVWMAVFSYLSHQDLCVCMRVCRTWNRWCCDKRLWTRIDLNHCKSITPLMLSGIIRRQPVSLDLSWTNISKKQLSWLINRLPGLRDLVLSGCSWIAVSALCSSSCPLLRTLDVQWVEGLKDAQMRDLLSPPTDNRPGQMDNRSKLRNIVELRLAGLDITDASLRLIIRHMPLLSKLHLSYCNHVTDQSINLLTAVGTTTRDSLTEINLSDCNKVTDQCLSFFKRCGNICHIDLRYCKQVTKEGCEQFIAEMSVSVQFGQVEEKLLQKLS
Sequence of KDM2B 1059–1336/SKP1 heterodimer (P63208 2-163, chain 2 of 2): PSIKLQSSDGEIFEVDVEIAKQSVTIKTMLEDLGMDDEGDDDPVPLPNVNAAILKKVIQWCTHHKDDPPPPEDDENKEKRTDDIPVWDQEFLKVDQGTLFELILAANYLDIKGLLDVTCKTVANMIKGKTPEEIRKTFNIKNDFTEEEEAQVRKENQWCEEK

Row | stoichiometry N (RING1B, full-length) | stoichiometry N [1] | Kd [2] [µM] | Binder
1 | 1 |  |  | B1
2 | 1 | 1 |  | B2
3 |  |  | 2.8 | B3

Reference: publication PMC5088048 (Structure (London, England : 1993), 2016)
